T1: mouse Trop2-his protein (Sino Biological, #50922-M08H) (mouse, UniProt Q8BGV3 25-270)
T1 construct: bought protein; also called mouse Trop2 protein; not shown: his tag
T1 sequence (looked up): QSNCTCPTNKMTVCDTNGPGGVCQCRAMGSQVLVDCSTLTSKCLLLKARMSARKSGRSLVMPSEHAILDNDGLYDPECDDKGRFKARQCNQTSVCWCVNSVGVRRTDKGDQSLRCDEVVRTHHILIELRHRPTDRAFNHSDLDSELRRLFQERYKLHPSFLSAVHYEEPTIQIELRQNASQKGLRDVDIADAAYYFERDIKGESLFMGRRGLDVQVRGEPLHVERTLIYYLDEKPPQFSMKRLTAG

T2: monkey Trop2 on CHO-K1 cells (monkey, UniProt A0A2K5UE71 27-323)
T2 construct: also called CHO-K1/monkey Trop2
T2 sequence: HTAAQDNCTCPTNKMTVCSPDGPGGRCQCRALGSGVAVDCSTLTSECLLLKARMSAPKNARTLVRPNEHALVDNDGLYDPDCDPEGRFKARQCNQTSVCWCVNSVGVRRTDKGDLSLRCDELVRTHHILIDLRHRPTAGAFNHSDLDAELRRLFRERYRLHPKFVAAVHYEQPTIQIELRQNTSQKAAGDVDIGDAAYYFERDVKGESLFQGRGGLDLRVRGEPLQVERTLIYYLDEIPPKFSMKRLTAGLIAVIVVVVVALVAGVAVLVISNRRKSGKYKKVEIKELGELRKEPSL


What was measured:
[1] = molecular target: T1, mouse Trop2-his protein (Sino …); test: ELISA, plate coated with mouse Trop2-his protein
Experimental: An ELISA plate was coated with 100 μL of 1 μg/mL mouse Trop2-his protein (Sino Biological, #50922-M08H) in PBS at 4° C. overnight. The plate was blocked with 200 μL of PBST (PBS+0.05% tween 20)+2% BSA at 37° C. for 1 h. The plate was washed 4 times with PBST. 100 μL of Trop2 antibody diluted in a gradient (5-fold dilution, starting concentration: 33.33 nM) was added to the ELISA plate and the plate was incubated at 37° C. for 1 h. The plate was washed 4 times with PBST. 100 μL of anti-human IgG (H+L)-HRP (Sigma, #A8667) diluted in 1:4000 was added and the plate was incubated at 37° C. for 1 h. The plate was washed 4 times with PBST. 100 μL of TMB substrate (Invitrogen, #88-7025-88) was added and the plate was incubated at room temperature for 5 min, and then 50 μL of stop buffer (BBI life sciences, #E661006-0200) was added to stop the reaction. The OD450 nm reading was recorded using a microplate reader (Perkin Elmer, EnSpire).

[2] = molecular target: T2, monkey Trop2 on CHO-K1 cells; test: flow cytometry on CHO-K1/monkey Trop2 cells (second run)
Experimental: CHO-K1/monkey Trop2 cells (Chempartner, Shanghai, China) and CHO-K1 blast cells were each digested with 3 mL of TrypLE, and the digestion was stopped with 7 mL of the corresponding medium. […] The cell solution was centrifuged, and the cells were washed once with PBS+0.5% BSA. […] The cells were washed once with PBS+0.5% BSA. The cells were incubated at 4° C. for 1 h in the dark with 100 μL of Alexa Fluor 488 goat anti-human IgG (Life technologies, #A-11013) diluted at 1:1000, and washed twice with PBS+0.5% BSA. The cells were resuspended in 200 μL of PBS+0.5% BSA. The suspension was centrifuged at 4° C. for 5 min at 2000 rpm and tested using a FACS verse flow cytometer or NovoCyte flow cytometer (ACEA Biosciences). All procedures were performed on ice.

Row | EC50 [2] [nM] | Binder | binding result [1]
1 | 1.3 | comparative example 2 antibody Tab (hRS7) (antibody, human IgG1, kappa, V domains shown, prepared on the basis of sacituzumab govitecan (ChemPartner, #T07-001); naked antibody) VH: QVQLQQSGSELKKPGASVKVSCKASGYTFTNYGMNWVKQAPGQGLKWMGWINTYTGEPTYTDDFKGRFAFSLDTSVSTAYLQISSLKADDTAVYFCARGGFGSSYWYFDVWGQGSLVTVSS VL: DIQLTQSPSSLSASVGDRVSITCKASQDVSIAVAWYQQKPGKAPKLLIYSASYRYTGVPDRFSGSGSGTDFTLTISSLQPEDFAVYYCQQHYITPLTFGAGTKVEIKR | no binding (tested: 33.33 nM (starting concentration))
2 | 1.8 | PR001165 (antibody, human IgG1, kappa, V domains shown, fully human IgG1/kappa; also called antibody No. (26)) VH: QVQLVESGGGVVQPGRSLRLSCEASGFTFSHYGMHWVRQAPGKGLEWVAVIWYDGIKTYYVESVKGRFTISRDNSKNTLNLQMNRLRAEDTAVYYCARDGGFGESNYYGLDVWGQGTTVTVSS VL: DIQLTQSPSFLSASVGDRVTITCRASQGISSYLGWYQQKPGKAPKLLIYIASTLQSGVPSRFSGSGSGTEFTLTISSLQPEDFATYYCQQLNSYPYTFGQGTKLEIKR | –

From US20240067748A1 (NONA BIOSCIENCES SUZHOU, published 2024)
